This is an account of results in US20190233475A1 (Bicycle, published 2019).

B1: Ac-(06-550) Aze3 HArg5 (peptide)
peptide: Ac-CSF[Aze]Y[hArg]CVYYPDIC-NH2
modifications: linker 1-7-14 via TBMB
notes: Synthetic bicyclic peptide, 5 x 6, made on Rink amide resin
B2: Ac-(06-259-02) (peptide)
peptide: Ac-CNTWNPWCPWDAPLC-NH2
modifications: linker 1-8-15 via TBMB
notes: Synthetic bicyclic peptide without the terminal alanines, made on Rink amide resin
B3: Ac-(06-550) NMe-Arg5 (peptide)
peptide: Ac-CSFPY[NMeR]CVYYPDIC-NH2
modifications: linker 1-7-14 via TBMB
notes: as for B1
B4: Ac-(06-550) HArg5 (peptide)
peptide: Ac-CSFPY[hArg]CVYYPDIC-NH2
modifications: linker 1-7-14 via TBMB
notes: as for B1
B5: Ac-(06-550) Aze3 NMe-Arg5 (peptide)
peptide: Ac-CSF[Aze]Y[NMeR]CVYYPDIC-NH2
modifications: linker 1-7-14 via TBMB
notes: as for B1

*1 amine or outer side, *2 acyl side, *3 side chain or, on linkers, in order; H or OH if unused. Bridges are numbered along the chain shown (N, C = ends). Where no end group is shown, it is not given here. [ ]: non-standard residue; d: D form. TBMB = c1c(C[*:1])cc(C[*:3])cc1C[*:2]; NMeR = CN[C@@H](CCCNC(=N)N)C(=O)O; hArg = N=C(N)NCCCC[C@H](N)C(=O)O; Aze = O=C(O)[C@@H]1CCN1

T3 sequence (P03952 20-638 limits assumed): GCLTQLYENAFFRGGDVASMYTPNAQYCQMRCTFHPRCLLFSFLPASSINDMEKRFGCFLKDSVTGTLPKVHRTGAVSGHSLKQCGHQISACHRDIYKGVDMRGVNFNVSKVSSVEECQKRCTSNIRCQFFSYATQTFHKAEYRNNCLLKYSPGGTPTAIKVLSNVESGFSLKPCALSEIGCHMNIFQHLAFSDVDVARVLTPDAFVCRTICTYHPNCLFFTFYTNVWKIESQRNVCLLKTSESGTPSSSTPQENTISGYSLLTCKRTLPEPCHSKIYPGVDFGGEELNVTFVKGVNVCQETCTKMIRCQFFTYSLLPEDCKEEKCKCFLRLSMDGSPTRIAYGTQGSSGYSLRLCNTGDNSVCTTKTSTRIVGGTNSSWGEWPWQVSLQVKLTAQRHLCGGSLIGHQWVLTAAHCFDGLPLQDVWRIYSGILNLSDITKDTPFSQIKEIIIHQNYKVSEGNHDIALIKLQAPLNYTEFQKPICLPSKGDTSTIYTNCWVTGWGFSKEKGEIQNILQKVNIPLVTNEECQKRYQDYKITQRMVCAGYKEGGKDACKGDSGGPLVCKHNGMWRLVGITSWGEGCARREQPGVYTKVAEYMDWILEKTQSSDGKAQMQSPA

In the first assay the target is T1, human plasma kallikrein (human, UniProt P03952 20-638).
T1 construct: Enzyme used in the Ki assays; also called human kallikrein; PK
T1 sequence (P03952 20-638 limits assumed): as above
Nature of the assay: enzyme inhibition assay, fluorogenic substrate Z-PheArg-AMC. The method, then: (§1) Functional enzyme assays were conducted in 10 mM Tris HCl, 150 mM NaCl, 10 mM MgCl₂, 1 mM CaCl₂ and 1 mg/mL BSA (all Sigma UK) pH 7.4 at 25° C. in solid black 96 or 384 well plates. […] Release of AMC was measured using a Pherastar FS (BMG Labtech), excitation 360 nm, emission 460 nm. The rate of the linear phase of the reaction, typically 5 to 45 minutes, was calculated in MARS data analysis software (BMG labtech). The rate was then used to calculate the IC₅₀ and Kᵢ in Prism (GraphPad). A four parameter inhibition non-linear regression equation was used to calculate the IC₅₀. The One site-fit Kᵢ equation used to calculate the Kᵢ, constraining the Kᵢ to the Kₘ for the substrate which is 150 μM for the human enzyme, and 200 μM for the rat orthologue. All Kᵢ/IC₅₀ values are the mean of at least two independent experiments, and at least three for peptides with Kᵢ values lower than 1 nM. For rabbit kallikrein, between 7 to 14 pM enzyme was employed, with 33 μM substrate with a Kₘ of 50 μM.
A word on the Ki: it is the dissociation constant of the complex between target and ligand, obtained from inhibition or displacement. As to B1, the Ki was 0.5 nM.

Regarding B2, affinity was put at a Ki of 5.9 nM.

The molecule B3 yielded an inhibition constant Ki of 2.66 nM.

Molecule B4 showed an inhibitory constant (Ki) of 1.8 nM.

Molecule B5 had a Ki of 53 nM.

The target in a further assay is T2, rat plasma kallikrein (rat, UniProt P14272 391-638).
T2 construct: domain: catalytic domain; Expressed and purified in house; also called rat kallikrein; rPK
T2 sequence (P14272 391-638 limits assumed): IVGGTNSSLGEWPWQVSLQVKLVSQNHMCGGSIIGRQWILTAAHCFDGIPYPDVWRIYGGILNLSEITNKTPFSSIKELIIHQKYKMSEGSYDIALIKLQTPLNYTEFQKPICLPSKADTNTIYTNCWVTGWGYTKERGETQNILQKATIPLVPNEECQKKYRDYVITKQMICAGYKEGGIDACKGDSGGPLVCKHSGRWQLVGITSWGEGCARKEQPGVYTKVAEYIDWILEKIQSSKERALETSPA
The assay is described as above. The method, then: as §1
The molecule B1 yielded a Ki of 5.6 nM.

B2 yielded a Ki of 3.8 nM.

Regarding B4, the Ki came out at 25 nM.

Another assay concerns the target T3, biotinylated human plasma kallikrein (human, UniProt P03952 20-638, biotinylated (sites not given)).
T3 construct: mature; also called biotinylated hPK; biotinylated human kallikrein
The assay can be described thus: homogeneous plate-based binding assay, TBMB-cyclised phage on biotinylated human plasma kallikrein. The method, then:
Assay of binding of individual clones: Library transformant colonies, or selection output colonies, were picked and grown as individual cultures in 2TY broth containing selective antibiotic. The picked colonies were DNA-sequenced using a QIAgen PyroMark Q96 DNA sequencer to reveal the amino-acid substitution present in each clone, and were assayed for human plasma kallikrein binding as follows. The phage-containing supernatant was harvested from the culture and phage were cyclised with tris-bromomethylbenzene (TBMB) based on the methods of Heinis et al (Nature Chemical Biology vol. 5 pp 502-507 (2009)). The purified phage from this process were assayed for binding to biotinylated human plasma kallikrein using a homogeneous plate-based binding assay; assay read-out measured on a BMG Labtech Pherastar FS plate reader. The quantitative binding data from duplicate assay samples was averaged (mean) and expressed as signal:background. Assay data shown is representative of at least 2 independent experiments. The assay data was correlated with the peptide sequences.
CNHWNPWCSVEPPVC (linker 1-8-15 via TBMB) [06-259-01 (phage clone)]: the “S:B (signal:background)” value came to 51.7.

Consider CNTWNPWCPWDAPLC (linker 1-8-15 via TBMB) [06-259-02 (phage clone)], for which the “S:B (signal:background)” value amounted to 43.5.

As for CKNFWNPCDLIPISC (linker 1-8-15 via TBMB) [06-254-D3], the “S:B (signal:background)” value was found to be 20.3.

Take CNYWNPWCSDTRIGC (linker 1-8-15 via TBMB) [06-259-A6]: the “S:B (signal:background)” value is 22.6.

Regarding CKNYWNPCDLIPTGC (linker 1-8-15 via TBMB) [06-254-G3], the “S:B (signal:background)” value turned out to be 37.5.

CKNYWNPCDLVMDTC (linker 1-8-15 via TBMB) [06-254-03 (phage clone)]: the “S:B (signal:background)” value is 56.7.

Take CKNYWNPCDLISIKC (linker 1-8-15 via TBMB) [06-254-B3]: the “S:B (signal:background)” value came out at 61.6.

In the case of CNHWNPWCSADPPIC (linker 1-8-15 via TBMB) [06-259-03 (phage clone)], the “S:B (signal:background)” value was 49.8.

As for CNHWNPWCSADPPRC (linker 1-8-15 via TBMB) [06-259-F1], the “S:B (signal:background)” value stood at 38.

As to CKNYWNPCDLLESTC (linker 1-8-15 via TBMB) [06-254-E5], the “S:B (signal:background)” value came out at 29.7.

For CKNYWNPCDLIQDAC (linker 1-8-15 via TBMB) [06-254-F4], the “S:B (signal:background)” value came out at 46.4.

In the case of CKNYWNPCDLVEAQC (linker 1-8-15 via TBMB) [06-254-G4], the “S:B (signal:background)” value was found to be 33.1.

Take CNHWNPWCSSDPPVC (linker 1-8-15 via TBMB) [06-259-H4]: the “S:B (signal:background)” value came out at 33.6.

In the case of CNTWNPWCSWPDIDC (linker 1-8-15 via TBMB) [06-259-F2], the “S:B (signal:background)” value amounted to 22.7.

Turning to CKNYWNPCDLIGITC (linker 1-8-15 via TBMB) [06-254-G2], the “S:B (signal:background)” value is 46.3.

Regarding CKNYWNPCDLIPGPC (linker 1-8-15 via TBMB) [06-254-02 (phage clone)], the “S:B (signal:background)” value was found to be 46.6.

Take CNHWNPWCSDDPYIC (linker 1-8-15 via TBMB) [06-259-H3]: the “S:B (signal:background)” value was determined as 38.7.

For CKNYWNPCDLIRPPC (linker 1-8-15 via TBMB) [06-254-D1], the “S:B (signal:background)” value came to 33.6.

Turning to CKNYWNPCGLVYSTC (linker 1-8-15 via TBMB) [06-254-E6], the “S:B (signal:background)” value was 23.5.

Take CKNYWNPCDLIAPYC (linker 1-8-15 via TBMB) [06-254-C1]: the “S:B (signal:background)” value is 27.4.

Turning to CKNYWNPCDLIETTC (linker 1-8-15 via TBMB) [06-254-01 (phage clone)], the “S:B (signal:background)” value was 61.9.

Consider CNHWNPWCPADIPVC (linker 1-8-15 via TBMB) [06-259-E2], for which the “S:B (signal:background)” value came out at 37.7.

For CKNYWNPCDLLGIAC (linker 1-8-15 via TBMB) [06-254-B9], the “S:B (signal:background)” value was determined as 38.

As to CKNYWNPCDLVHDIC (linker 1-8-15 via TBMB) [06-254-E3], the “S:B (signal:background)” value amounted to 30.2.

CKNYWNPCDLIWTDC (linker 1-8-15 via TBMB) [06-254-E2]: the “S:B (signal:background)” value worked out at 31.4.

For the molecule CKNYWNPCDLLHVRC (linker 1-8-15 via TBMB) [06-254-A7], the “S:B (signal:background)” value came out at 26.1.

As to CKNYWNPCDLVDTFC (linker 1-8-15 via TBMB) [06-254-A4], the “S:B (signal:background)” value came out at 32.4.

On to CKNYWNPCDLVQIHC (linker 1-8-15 via TBMB) [06-254-H4], for which the “S:B (signal:background)” value worked out at 38.9.

For CKNYWNPCDLVTISC (linker 1-8-15 via TBMB, also called 06-254 (phage clone)) [06-254 parent], the “S:B (signal:background)” value was 23.5.

Turning to CNTWNPWCGWVGGFC (linker 1-8-15 via TBMB, also called 06-259 (phage clone)) [06-259 (parent)], the “S:B (signal:background)” value turned out to be 1.17.

CKNYWNPCDLIPDLC (linker 1-8-15 via TBMB) [06-254-F5]: the “S:B (signal:background)” value was determined as 38.7.

As for CKNYWNPCDLLPDLC (linker 1-8-15 via TBMB) [06-254-B1], the “S:B (signal:background)” value came to 9.99.

With CKNYWNPCDLIADLC (linker 1-8-15 via TBMB) [06-254-H3], the “S:B (signal:background)” value was found to be 25.2.

Take CKNYWNPCDLIPDMC (linker 1-8-15 via TBMB) [06-254-D6]: the “S:B (signal:background)” value amounted to 24.4.
